From patent US20250043302A1, “MUTATED HYDROXYPHENYLPYRUVATE DIOXYGENASE POLYPEPTIDE, AND CODING GENE AND USE THEREOF” (BEIJING DABEINONG BIOTECHNOLOGY CO., LTD., priority 2021, published 2025)

Experiments:
Assay type in all cases: in vivo
[1] = tested on: Arabidopsis thaliana T1 plants; assay: Topramezone tolerance of transgenic Arabidopsis thaliana T1 plants (spray, bleached leaf area grade, damage score); conditions: 7 DAT, Table 4; for Classification and statistics of the grade of pesticide damage: Grade 0 / Classification and statistics of the grade of pesticide damage: Grade 1 / Classification and statistics of the grade of pesticide damage: Grade 2 / Classification and statistics of the grade of pesticide damage: Grade 3: number of plants; for Scores: pesticide damage score 0-100
Procedure, shortened: (§1)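 Read-out: per-plant damage grade 0–3 from proportion of bleached leaf area at 7 DAT (1 <50%, 2 >50%, 3 100%). Plants were T1 transformants, glufosinate-selected, plus wild-type CK, sprayed 18 days post-sowing. Rates: topramezone 25–200, isoxaflutole 35–280, mesotrione 52.5–420 g ai/ha.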

[2] = tested on: Arabidopsis thaliana T1 plants; assay: Isoxaflutole tolerance of transgenic Arabidopsis thaliana T1 plants (spray, bleached leaf area grade, damage score); parameters: Scores (pesticide damage): scale not given here; conditions: spray, Arabidopsis thaliana T1 plants; for Classification and statistics of the grade of pesticide damage: Grade 0 (number of plants) / Classification and statistics of the grade of pesticide damage: Grade 1 (number of plants) / Classification and statistics of the grade of pesticide damage: Grade 2 (number of plants) / Classification and statistics of the grade of pesticide damage: Grade 3 (number of plants): 16 plants
Procedure, shortened: as §1

[3] = tested on: Arabidopsis thaliana T1 plants; assay: Mesotrione tolerance of transgenic Arabidopsis thaliana T1 plants (spray, bleached leaf area grade, damage score); parameters: Scores: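 damage score 0-100 computed as Σ(N×S)/(T×M)×100 over grades 0-3 with higher meaning more damage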; conditions: Arabidopsis thaliana T1 plants; for Grade 0 (classification and statistics of the grade of pesticide damage; number of plants) / Grade 1 (classification and statistics of the grade of pesticide damage; number of plants) / Grade 2 (classification and statistics of the grade of pesticide damage; number of plants) / Grade 3 (classification and statistics of the grade of pesticide damage; number of plants): 16 plants
Procedure, shortened: as §1

[4] = isoxaflutole 35 g ai/ha (0.5x field concentration)
[5] = isoxaflutole 70 g ai/ha (1x field concentration)

B1: OsHPPDm-F372A-02: nucleotide sequence encoding Oryza sativa HPPD with F372A; vector DBN11755 (nucleic acid)
DNA: ATGCCACCCACGCCAACACCAACGGCCACCACTGGTGCCGTCTCGGCCGCGGCAGCGGCCGGTGAGAATGCTGGTTTCAGGCTAGTCGGCCACCGCCGCTTCGTGAGGGCAAATCCAAGATCTGATCGGTTCCAAGCACTTGCTTTCCACCATGTTGAGCTGTGGTGCGCTGACGCCGCTTCAGCTGCCGGGAGGTTTGCTTTTGCTTTAGGGGCGCCGCTCGCCGCAAGGAGTGATCTTTCCACCGGAAATTCTGCTCATGCTTCTCTTCTACTTAGATCAGCAAGTGTTGCATTTCTGTTCACTGCACCTTATGGCGGAGACCATGGTGTCGGGGCCGATGCTGCAACAACAGCTAGCATACCATCATTTTCTCCCGGCGCCGCAAGAAGATTTGCAGCCGATCATGGCCTGGCAGTTCATGCTGTGGCATTGAGGGTCGCCGACGCGGCTGATGCGTTCCGCGCCAGCGTGGCTGCTGGAGCTAGGCCGGCGTTCCAGCCTGCTGACCTTGGGGGTGGATTTGGATTGGCGGAGGTTGAATTATATGGTGATGTTGTGCTCCGTTTTGTTTCCCATCCAGATGGTGCTGATGCTCCATTTCTACCTGGATTTGAAGGGGTGTCAAACCCCGGCGCGGTGGATTATGGACTGCGTCGATTTGATCACGTGGTAGGTAATGTTCCTGAGTTGGCTCCCGTGGCGGCCTACATTTCAGGCTTTACTGGCTTCCATGAATTTGCCGAGTTCACCGCGGAAGATGTGGGAACTGCTGAAAGTGGATTGAACTCTGTTGTCCTGGCGAACAATGCAGAGACTGTATTGCTCCCCTTGAATGAGCCTGTGCACGGCACCAAACGGCGATCTCAAATTCAGACATACCTCGACCACCACGGGGGCCCTGGTGTTCAGCATATTGCTCTAGCCAGCGACGACGTACTGGGAACACTGAGGGAGATGAGAGCCCGTTCCGCCATGGGTGGCTTTGAGTTTCTGGCCCCTCCGCCGCCAAACTACTACGACGGCGTCAGACGGCGGGCGGGTGACGTCTTGAGTGAGGAGCAGATCAATGAATGTCAAGAACTTGGGGTTCTTGTTGATAGAGATGATCAAGGAGTGCTCCTCCAAATAGCCACAAAACCTGTTGGCGACCGCCCGACCTTCTTCCTTGAAATGATCCAAAGGATCGGCTGCATGGAGAAGGATGAATCGGGCCAGGAGTACCAGAAGGGTGGGTGTGGTGGCTTTGGGAAGGGCAACTTCAGCGAGCTGTTCAAGTCAATTGAAGAATATGAAAAATCATTGGAGGCAAAGCAAGCTCCGACGGTGCAGGGAAGCTGA
modifications: OsHPPDm-F372A-02 Nucleotide Sequence
notes: vector DBN11755
- Classification and statistics of the grade of pesticide damage: Grade 0 ([1]; topramezone 25 g ai/ha (1×)): 8
- Classification and statistics of the grade of pesticide damage: Grade 1 ([1]; topramezone 25 g ai/ha (1×)): 8
- Classification and statistics of the grade of pesticide damage: Grade 2 ([1]; topramezone 25 g ai/ha (1×)): 0
- Classification and statistics of the grade of pesticide damage: Grade 3 ([1]; topramezone 25 g ai/ha (1×)): 0
- Classification and statistics of the grade of pesticide damage: Grade 0 ([1]; topramezone 100 g ai/ha (4×)): 0
- Classification and statistics of the grade of pesticide damage: Grade 1 ([1]; topramezone 100 g ai/ha (4×)): 0
- Classification and statistics of the grade of pesticide damage: Grade 2 ([1]; topramezone 100 g ai/ha (4×)): 0
- Classification and statistics of the grade of pesticide damage: Grade 3 ([1]; topramezone 100 g ai/ha (4×)): 16
- Scores ([1]; topramezone 25 g ai/ha (1×)): 17
- Scores ([1]; topramezone 100 g ai/ha (4×)): 100
- Resistance evaluation ([1]; topramezone 25 g ai/ha (1×)): moderately
- Resistance evaluation ([1]; topramezone 100 g ai/ha (4×)): non-resistant (non-resistant plants (scores 68-100))
- Resistance evaluation [2, 4]: Poorly
- Scores (pesticide damage) [2, 4]: 52
- Classification and statistics of the grade of pesticide damage: Grade 0 (number of plants) [2, 4]: 0
- Classification and statistics of the grade of pesticide damage: Grade 1 (number of plants) [2, 4]: 8
- Classification and statistics of the grade of pesticide damage: Grade 2 (number of plants) [2, 4]: 7
- Classification and statistics of the grade of pesticide damage: Grade 3 (number of plants) [2, 4]: 1
- Resistance evaluation [2, 5]: Non-resistant
- Scores (pesticide damage) [2, 5]: 100
- Classification and statistics of the grade of pesticide damage: Grade 0 (number of plants) [2, 5]: 0
- Classification and statistics of the grade of pesticide damage: Grade 1 (number of plants) [2, 5]: 0
- Classification and statistics of the grade of pesticide damage: Grade 2 (number of plants) [2, 5]: 0
- Classification and statistics of the grade of pesticide damage: Grade 3 (number of plants) [2, 5]: 16
- Resistance evaluation ([3]; mesotrione 52.5 g ai/ha): Poorly resistant
- Scores ([3]; mesotrione 52.5 g ai/ha): 63
- Grade 0 (classification and statistics of the grade of pesticide damage; number of plants) ([3]; mesotrione 52.5 g ai/ha): 0
- Grade 1 (classification and statistics of the grade of pesticide damage; number of plants) ([3]; mesotrione 52.5 g ai/ha): 5
- Grade 2 (classification and statistics of the grade of pesticide damage; number of plants) ([3]; mesotrione 52.5 g ai/ha): 8
- Grade 3 (classification and statistics of the grade of pesticide damage; number of plants) ([3]; mesotrione 52.5 g ai/ha): 3
- Resistance evaluation ([3]; mesotrione 105 g ai/ha): Non-resistant
- Scores ([3]; mesotrione 105 g ai/ha): 100
- Grade 0 (classification and statistics of the grade of pesticide damage; number of plants) ([3]; mesotrione 105 g ai/ha): 0
- Grade 1 (classification and statistics of the grade of pesticide damage; number of plants) ([3]; mesotrione 105 g ai/ha): 0
- Grade 2 (classification and statistics of the grade of pesticide damage; number of plants) ([3]; mesotrione 105 g ai/ha): 0
- Grade 3 (classification and statistics of the grade of pesticide damage; number of plants) ([3]; mesotrione 105 g ai/ha): 16
